From US20250340630A1 (SICHUAN KELUN BIOTECH BIOPHARMACEUTICAL, published 2025)

What was measured:
[1] = biological target: T1, human Claudin18.2 (human, UniProt P56856-2 1-261); test: cell-based or functional assay
[2] = biological target: T1, human Claudin18.2; test: flow cytometry (IntelliCyt) on Ba/F3-Claudin18.2 cells
From the text: In order to evaluate the anti-Claudin18.2 humanized antibodies, codon optimized cDNAs of the heavy chains and the light chains of the candidate humanized antibodies from Example 6 were synthesized and ligated into pcDNA3.4 (by Nanjing Genscript Biotech Corporation). Expi293F cells (purchased from Thermo Incorporation) were co-transfected with pcDNA3.4 coding the heavy chain and light chain of each antibody. The antibodies were purified from the supernatant using protein A (MabSelect SuRe, GE). The affinity of the humanized antibodies to Claudin18.2 was determined using Ba/F3-Claudin18.2 cells which over-expressed human Claudin18.2. Ba/F3-Claudin18.2 cells (60000 in 10 ul buffer) were incubated with purified humanized antibodies on ice for 30 min, followed by washing with buffer (PBS+2% FBS) twice and addition of Alexa647-labeled goat-anti-human IgG Fc antibody (1:500 dilution). The cells were incubated on ice for another 30 min and analyzed by IntelliCyt.

[3] = biological target: T1, human Claudin18.2; test: flow cytometry on Ba/F3-Claudin18.2 cells, chimeric antibody
Protocol: The affinity of the anti-Claudin18.2 chimeric antibodies to Ba/F3-Claudin18.2 cells were determined. […] The cells were then analyzed by FACS.

[4] = biological target: T2, human Claudin18.1 (human, UniProt P56856 1-261); test: FACS titration on Ba/F3-Claudin 18.1 cells
T2 construct: whole, on cells; Presented on transfected cells; also called CLDN18.1
Protocol: (§1) The affinity of the candidates to Claudin18.2 was measured using FACS. […] Ba/F3-Claudin18.1 and Ba/F3-Claudin18.2 cells were incubated with the purified mouse antibodies at various concentrations on ice for 30 min and mouse IgG was used as negative control (Thermo Fisher, Cat: 31903), followed by washing with FACS buffer (PBS+2% FBS) twice.

[5] = biological target: T1, human Claudin18.2; test: flow cytometry on Ba/F3-Claudin18.2 cells, purified mouse antibody
Protocol: as §1

ADCC EC50, Ba/F3-Claudin18.2 target cells, NK-92MI_mCD16 effectors [1] [µg/mL] | Max MFI [2] [MFI] | EC50 [3] [nM] | Max MFI [3] [MFI] | Binder | ADCC Max killing rate %, Ba/F3-Claudin18.2 target cells [1] [%] | further results
0.048 | 1.13e+07 |  |  | humanized antibody 1E9.2-hz41 (antibody, human IgG1, kappa, V domains shown, Human IgG1 / kappa constant regions) VH: EVQLVESGGGLVKPGGSLRLSCAASGFSFSNSAMSWVRQAPGKGLEGVATISSGDSYTYYPDSVKGRFTISRDNAKNSLYLQMNSLRAEDTAVYYCARQGYGNALDYWGQGTLVTVSS VL: DIVMTQSPDSLAVSLGERATINCKSSQSLLNSGNQKNYLTWYQQKPGQPPKLLIYWSSTRESGVPDRFSGSGSGTDFTLTISSLQAEDFAVYYCQNDYYYPLTFGGGTKVEIKR | 55.4 | 
 | 1.06e+07 |  |  | humanized antibody 1E9.2-hz31 (antibody, human IgG1, kappa, V domains shown, Human IgG1 / kappa constant regions) VH: EVQLVESGGGLVKPGGSLRLSCAASGFSFSNSAMSWVRQAPGKGLEGVATISSGDSYTYYADSVKGRFTISRDNAKNSLYLQMNSLRAEDTAVYYCARQGYGNALDYWGQGTLVTVSS VL: DIVMTQSPDSLAVSLGERATINCKSSQSLLNSGNQKNYLTWYQQKPGQPPKLLIYWSSTRESGVPDRFSGSGSGTDFTLTISSLQAEDFAVYYCQNDYYYPLTFGGGTKVEIKR |  | 
0.097 |  |  |  | humanized antibody 1E9.2-hz14 (antibody, human IgG1, kappa, V domains shown, Human IgG1 / kappa constant regions) VH: EVQLVESGGGLVKPGGSLRLSCAASGFSFSNSAMSWVRQAPGKGLEWVSTISSGDSYTYYADSVKGRFTISRDNAKNSLYLQMNSLRAEDTAVYYCARQGYGNALDYWGQGTLVTVSS VL: DIVMTQSPDSLAVSLGERATINCKSSQSLLQSGNNKNYLTWYQQKPGQPPKLLIYWSSTRESGVPDRFSGSGSGTDFTLTISSLQAEDFAVYYCQNDYYYPLTFGGGTKVEIKR | 60.5 | 
0.113 | 5.9e+06 |  |  | humanized antibody 1E9.2-hz17 (antibody, human IgG1, kappa, V domains shown, Human IgG1 / kappa constant regions) VH: EVQLVESGGGLVKPGGSLRLSCAASGFSFSNSAMSWVRQAPGKGLEWVSTISSGDSYTYYADSVKGRFTISRDNAKNSLYLQMNSLRAEDTAVYYCARQGYGNALDYWGQGTLVTVSS VL: DIVMTQTPLSLPVTPGEPASISCKSSQSLLQSGNGKNYLTWYLQKPGQSPQLLIYWSSTRESGVPDRFSGSGSGTDFTLKISRVEAEDFGVYYCQNDYYYPLTFGGGTKVEIKR | 59.6 | 
 | 1.46e+07 |  |  | humanized antibody 1E9.2-hz21 (antibody, human IgG1, kappa, V domains shown, Human IgG1 / kappa constant regions) VH: EVQLVESGGGLVKPGGSLRLSCAASGFSFSNSAMSWVRQAPGKGLEGVSTISSGDSYTYYADSVKGRFTISRDNAKNSLYLQMNSLRAEDTAVYYCARQGYGNALDYWGQGTLVTVSS VL: DIVMTQSPDSLAVSLGERATINCKSSQSLLNSGNQKNYLTWYQQKPGQPPKLLIYWSSTRESGVPDRFSGSGSGTDFTLTISSLQAEDFAVYYCQNDYYYPLTFGGGTKVEIKR |  | 

The remaining lines, values behind:

Binder | ADCC EC50, Ba/F3-Claudin18.2 target cells, NK-92MI_mCD16 effectors [1] [µg/mL] | Max MFI [2] [MFI] | EC50 [3] [nM] | Max MFI [3] [MFI] | ADCC Max killing rate %, Ba/F3-Claudin18.2 target cells [1] [%] | further results
humanized antibody 1E9.2-hz12 (antibody, human IgG1, kappa, V domains shown, Human IgG1 / kappa constant regions) VH: EVQLVESGGGLVKPGGSLRLSCAASGFSFSNSAMSWVRQAPGKGLEWVSTISSGDSYTYYADSVKGRFTISRDNAKNSLYLQMNSLRAEDTAVYYCARQGYGNALDYWGQGTLVTVSS VL: DIVMTQSPDSLAVSLGERATINCKSSQSLLQSGNQKNYLTWYQQKPGQPPKLLIYWSSTRESGVPDRFSGSGSGTDFTLTISSLQAEDFAVYYCQNDYYYPLTFGGGTKVEIKR | 0.091 |  |  |  | 64.4 | 
humanized antibody 1E9.2-hz15 (antibody, human IgG1, kappa, V domains shown, Human IgG1 / kappa constant regions) VH: EVQLVESGGGLVKPGGSLRLSCAASGFSFSNSAMSWVRQAPGKGLEWVSTISSGDSYTYYADSVKGRFTISRDNAKNSLYLQMNSLRAEDTAVYYCARQGYGNALDYWGQGTLVTVSS VL: DIVMTQTPLSLPVTPGEPASISCKSSQSLLNSGNQKNYLTWYLQKPGQSPQLLIYWSSTRESGVPDRFSGSGSGTDFTLKISRVEAEDFGVYYCQNDYYYPLTFGGGTKVEIKR | 0.08 | 8.99e+06 |  |  | 66.2 | 
humanized antibody 1E9.2-hz13 (antibody, human IgG1, kappa, V domains shown, Human IgG1 / kappa constant regions) VH: EVQLVESGGGLVKPGGSLRLSCAASGFSFSNSAMSWVRQAPGKGLEWVSTISSGDSYTYYADSVKGRFTISRDNAKNSLYLQMNSLRAEDTAVYYCARQGYGNALDYWGQGTLVTVSS VL: DIVMTQSPDSLAVSLGERATINCKSSQSLLQSGNQKNYLTWYQQKPGQPPKLLIYWSSTRESGVPDRFSGSGSGTDFTLTISSLQAEDVAVYYCQNDYYYPLTFGGGTKVEIKR | 0.068 |  |  |  | 63.8 | 
chimeric antibody 1E9.2-hz00 (antibody, human IgG1, kappa, V domains shown, Mouse variable regions on human IgG1 / kappa constant regions; expressed in Expi293F; also called 1E9.2 chimeric antibody) VH: EVMLVESGGGLVKPGGSLKLSCAASGFSFSNSAMSWVRQTPEKRLEGVATISSGDSYTYYPDSVKGRFTISRDNAKNSLYLQMSSLRSEDTAVYYCARQGYGNALDYWGQGTSVTVSS VL: DIVMTQSPSSLTVTAGEKVTMSCKSSQSLLNSGNQKNYLTWYQQKPGQPPKLLIYWSSTRESGVPDRFTGSGSGTDFTLTISSVQAEDLAVYYCQNDYYYPLTFGAGTKLELKR | 0.049 | 1.12e+07 | 11 | 1.18e+07 | 59.8 | 
chimeric antibody 9C8.1-hz00 (antibody, human IgG1, kappa, V domains shown, Mouse variable regions on human IgG1 / kappa constant regions; expressed in Expi293F) VH: QVQLQQSGAELVRPGSSVKISCKASGYAFSNYWMNWVKQRPGQGLEWIGQIYPGDGDTNYNGKFKGKATLTTDKSSSTAYMQLSSLTSEDSAVYFCARLYYGNSFAYWGQGTLVTVSS VL: DIVMTQSPSSLTVTAGEKVTVSCKSSQSLLNSGNQKNYLTWYQQKPGQPPKLLIYWASTRESGVPDRFTGSGSGTDFTLTISSVQAADLAIYYCQNDYFYPFTFGGGTKLEIKR |  |  | 23.9 | 1.44e+07 |  | 
mouse antibody 1E9.2 (antibody, V domains shown, Purified from hybridoma) VH: EVMLVESGGGLVKPGGSLKLSCAASGFSFSNSAMSWVRQTPEKRLEGVATISSGDSYTYYPDSVKGRFTISRDNAKNSLYLQMSSLRSEDTAVYYCARQGYGNALDYWGQGTSVTVSS VL: DIVMTQSPSSLTVTAGEKVTMSCKSSQSLLNSGNQKNYLTWYQQKPGQPPKLLIYWSSTRESGVPDRFTGSGSGTDFTLTISSVQAEDLAVYYCQNDYYYPLTFGAGTKLELK |  |  |  |  |  | binding result [4]: no binding (tested: about 50 nM); EC50 [5]: 8.51 nM; Max MFI [5]: 5.08e+06 MFI
chimeric antibody 6B9.22-hz00 (antibody, human IgG1, kappa, V domains shown, Mouse variable regions on human IgG1 / kappa constant regions; expressed in Expi293F) VH: QVQLQQSGAELVKPGASVKMSCKAFGYTFTSYPIEWMKQNHGKSLEWIGNFHPYNDDTKYNEKFKGKAKLTVEKSSSTVYLELSRLTSDDSAVYYCARTYYGNSFAYWGQGTLVTVSS VL: DIVMTQSPSSLTVTAGEKVTMSCKSSQSLLNSGNQKNYLTWYQQKPGQPPKLLIYWASSRDSGVPHRFTGSGSGTDFTLTISSVQAEDLAFYYCQNDYFYPFTFGAGTKLELKR |  |  | 18.2 | 1.67e+07 |  | 
chimeric antibody 19H11.6-hz00 (antibody, human IgG1, kappa, V domains shown, Mouse variable regions on human IgG1 / kappa constant regions; expressed in Expi293F) VH: EVMLVESGGGLVKPGGSLKLSCAASGFSFSNSAMSWVRQTPEKRLEGVATISSGDSFTYYPDTVKGRFTISRDNAKNSLYLQMSRLRSEDTAVYYCARQGYGNALDYWGQGTSVTVSS VL: DIVMTQSPSSLTVTAGEKVTMTCKSSQSLLNSGNQKNYLTWYQQKPGQPPKLLIYWSSTRESGVPDRFTGSGSGTDFTLTISSVQAEDLAVYYCQNDYYYPLTFGAGTKLELKR |  |  | 11.6 | 1.3e+07 |  | 
chimeric antibody 16A9.11-hz00 (antibody, human IgG1, kappa, V domains shown, Mouse variable regions on human IgG1 / kappa constant regions; expressed in Expi293F) VH: EVMLVESGGGLVKPGGSLKLSCAASGFSFSNSAMSWVRQTPEKRLEGVATISSGDSYTYYPDSVKGRFTISRDTAKNSLYLQMSSLRSEDTAVYYCTRQGYGNAMDYWGQGTSVTVSS VL: DIVMTQSPSSLTVTAGEKVTMSCKSSQSLLNSGNQKNYLTWYQQKPGQPPKLLIYWSSTRESGVPDRFTGSGSGTDFTLTISSVQAEDLAVYYCQNDYYYPLTFGAGTKLELKR |  |  | 10.5 | 1.24e+07 |  | 
mouse antibody 16A9.11 (antibody, V domains shown, Purified from hybridoma) VH: EVMLVESGGGLVKPGGSLKLSCAASGFSFSNSAMSWVRQTPEKRLEGVATISSGDSYTYYPDSVKGRFTISRDTAKNSLYLQMSSLRSEDTAVYYCTRQGYGNAMDYWGQGTSVTVSS VL: DIVMTQSPSSLTVTAGEKVTMSCKSSQSLLNSGNQKNYLTWYQQKPGQPPKLLIYWSSTRESGVPDRFTGSGSGTDFTLTISSVQAEDLAVYYCQNDYYYPLTFGAGTKLELK |  |  |  |  |  | binding result [4]: no binding (tested: about 50 nM); EC50 [5]: 10.2 nM; Max MFI [5]: 5.82e+06 MFI
mouse antibody 19G10.14 (antibody, V domains shown, Purified from hybridoma) VH: QVQLKESGPGLVAPSQSLSITCTVSGFSFTSYGVHWVRQPPGKGLEWLGVIWAGGSTDYNAALMSRLSIRKDNSKSQVFLKMNSLQIADTAMYYCARDGHGKVGFDVWGAGTTVTVSS VL: DIVMTQSPSSLSVSAGEKVTMNCKSSQSLLNSGNQKNYLAWYQQKPGQPPKLLIYGASTRESGVPDRFTGGGSGTDFTLTISSVQAEDLAIYYCQNDHFYPFTFGSGTKLEIK |  |  |  |  |  | binding result [4]: no binding (tested: about 50 nM); EC50 [5]: 16.3 nM; Max MFI [5]: 3.5e+06 MFI
